# From publication PMC8329864, “Mycobacterium tuberculosis ferritin: a suitable workhorse protein for cryo-EM development” (Acta Crystallographica. Section D, Structural Biology, 2021)
# B1: bacterioferritin B (BfrB) from Mycobacterium tuberculosis (natural protein)
# chain: MTEYEGPKTKFHALMQEQIHNEFTAAQQYVAIAVYFDSEDLPQLAKHFYSQAVEERNHAMMLVQHLLDRDLRVEIPGVDTVRNQFDRPREALALALDQERTVTDQVGRLTAVARDEGDFLGEQFMQWFLQEQIEEVALMATLVRVADRAGANLFELENFVAREVDVAPAASGAPHAAGGRL
# notes: also called BrfB; mycobacterial ferritin; copies: 24
# Molecular target: the molecule itself
# Experiment: SEC
protein,measurement,value
B1,binding result,binds
